Data reported in article PMC11077089, “Molecular basis of A. thaliana KEOPS complex in biosynthesizing tRNA t^6A” (Nucleic Acids Research, 2024).

Legend:
[1] = target: the molecule itself; assay: cell-based or functional assay
[2] = target: the molecule itself; assay: SEC; oligomeric state from elution volumes (Superdex 200 Increase 10/300 GL, HiLoad 16/600 Superdex 200) with reference to ScKEOPS (monomeric, 117.7 kDa) and standard calibration
[3] = target: the molecule itself; assay: cryo-EM structure; AtKEOPS mixed with tRNA^ArgCCU at 1:2; tRNA not seen; six subunits resolved (KAE1, PCC1, PCC1, KAE1, BUD32, CGI121); 3.2 Å after local refinement

B1: A. thaliana KEOPS variant PCC1^R73D–KAE1–BUD32–CGI121 (complex, Arabidopsis thaliana)
chain 1: MKKKMIAIGFEGSANKIGVGIVTLDGTILANPRHTYITPPGHGFLPRETAHHHLDHVLPLVKSALETSQVTPEEIDCICYTKGPGMGAPLQVSAIVVRVLSQLWKKPIVAVNHCVAHIEMGRVVTGADDPVVLYVSGGNTQVIAYSEGRYRIFGETIDIAVGNCLDRFARVLKLSNDPSPGYNIEQLAKKGENFIDLPYAVKGMDVSFSGILSYIETTAEEKLKNNECTPADLCYSLQETVFAMLVEITERAMAHCDKKDVLIVGGVGCNERLQEMMRTMCSERDGKLFATDDRYCIDNGAMIAYTGLLAFVNGIETPIEDSTFTQRFRTDEVHAVWREKEAVLLGDKKVAAN
chain 2: MDCEENVRDESLVLIKQGAEARVFESTFAGRRSIVKERFSKKYRHPILDAKLTLKRLNAEARCMTKARKLGVCTPVLYAVDTLLHSLTLEYIEGVSVKDIFLEFGTNGVVEERLDDVAAQIGAAIAKLHDGGLAHGDLTTSNMLVRSGTNQLVLIDFGLSVTSTLPEDKAVDLYVLERALLSMHSSCGNVMDRILTAYRKSSKQWSATFNKLAQVRQRGRKRTMIG
chain 3: MKVFNLDRGNTLSVSLFSGVTNSKELLNSMLDGSLKLEVSFLNASLIPDIFPLLAAAQKALISKSRDSLSTRTLHSELVYNYSGSKHITESLKRCGISENTTYILAARFNASPVEMEEVAKLINGKEIDLEELKTHANQANILKHYKITSQELGISSLGDAIVCRIAARDAL
chain 4: MAATVPATTRSDQTWDFSCNLDVSFESEEHALIAYTSLAVDKELQPDKVRRVMSVSNNKLSVHFEAIEARLLDASFSAFVDVLTLATRTIQEFGQK
t^6A-catalytic activity relative to AtKEOPS dimer [1]: ~25%

B2: A. thaliana KAE1–BUD32–PCC1 subcomplex (complex, Arabidopsis thaliana)
chain 1: MKKKMIAIGFEGSANKIGVGIVTLDGTILANPRHTYITPPGHGFLPRETAHHHLDHVLPLVKSALETSQVTPEEIDCICYTKGPGMGAPLQVSAIVVRVLSQLWKKPIVAVNHCVAHIEMGRVVTGADDPVVLYVSGGNTQVIAYSEGRYRIFGETIDIAVGNCLDRFARVLKLSNDPSPGYNIEQLAKKGENFIDLPYAVKGMDVSFSGILSYIETTAEEKLKNNECTPADLCYSLQETVFAMLVEITERAMAHCDKKDVLIVGGVGCNERLQEMMRTMCSERDGKLFATDDRYCIDNGAMIAYTGLLAFVNGIETPIEDSTFTQRFRTDEVHAVWREKEAVLLGDKKVAAN
chain 2: MDCEENVRDESLVLIKQGAEARVFESTFAGRRSIVKERFSKKYRHPILDAKLTLKRLNAEARCMTKARKLGVCTPVLYAVDTLLHSLTLEYIEGVSVKDIFLEFGTNGVVEERLDDVAAQIGAAIAKLHDGGLAHGDLTTSNMLVRSGTNQLVLIDFGLSVTSTLPEDKAVDLYVLERALLSMHSSCGNVMDRILTAYRKSSKQWSATFNKLAQVRQRGRKRTMIG
chain 3: MAATVPATTRSDQTWDFSCNLDVSFESEEHALIAYTSLAVDKELQPDKVRRVMSVSNNKLSVHFEAIEARLLRASFSAFVDVLTLATRTIQEFGQK
notes: AtKAE1, A. thaliana; AtBUD32, A. thaliana; AtPCC1, A. thaliana; Written as the three-subunit unit, which by SEC forms a dimer of itself; also called KBP; AtKBP; source: recombinant, heterologous expression; copies: + +
stoichiometry N [2]: 2

B3: Arabidopsis thaliana PCC1 (natural protein)
chain: MAATVPATTRSDQTWDFSCNLDVSFESEEHALIAYTSLAVDKELQPDKVRRVMSVSNNKLSVHFEAIEARLLRASFSAFVDVLTLATRTIQEFGQK
notes: AtPCC1, A. thaliana, from chemically synthesized DNA; Forms a homodimer in the cryo-EM structure; also called AtPCC1; AT5G53045; source: E. coli (Rosetta DE3 pLysS or BL21), co-expressed with KAE1, purified (Ni-NTA, SEC)
binding result [3]: binds

B4: A. thaliana KAE1–PCC1 subcomplex (complex, Arabidopsis thaliana)
chain 1: MKKKMIAIGFEGSANKIGVGIVTLDGTILANPRHTYITPPGHGFLPRETAHHHLDHVLPLVKSALETSQVTPEEIDCICYTKGPGMGAPLQVSAIVVRVLSQLWKKPIVAVNHCVAHIEMGRVVTGADDPVVLYVSGGNTQVIAYSEGRYRIFGETIDIAVGNCLDRFARVLKLSNDPSPGYNIEQLAKKGENFIDLPYAVKGMDVSFSGILSYIETTAEEKLKNNECTPADLCYSLQETVFAMLVEITERAMAHCDKKDVLIVGGVGCNERLQEMMRTMCSERDGKLFATDDRYCIDNGAMIAYTGLLAFVNGIETPIEDSTFTQRFRTDEVHAVWREKEAVLLGDKKVAAN
chain 2: MAATVPATTRSDQTWDFSCNLDVSFESEEHALIAYTSLAVDKELQPDKVRRVMSVSNNKLSVHFEAIEARLLRASFSAFVDVLTLATRTIQEFGQK
notes: AtKAE1, A. thaliana, as m1; AtPCC1, A. thaliana, as m4; Written as the KAE1–PCC1 heterodimer unit, which by SEC forms a dimer of itself; also called KP; AtKP; source: E. coli (Rosetta DE3 pLysS or BL21), co-expressed from pET26a–AtKAE1–PCC1-6His, purified (Ni-NTA, SEC)
stoichiometry N [2]: 2

B5: A. thaliana KEOPS complex (PCC1–KAE1–BUD32–CGI121) (complex, Arabidopsis thaliana)
chain 1: MKKKMIAIGFEGSANKIGVGIVTLDGTILANPRHTYITPPGHGFLPRETAHHHLDHVLPLVKSALETSQVTPEEIDCICYTKGPGMGAPLQVSAIVVRVLSQLWKKPIVAVNHCVAHIEMGRVVTGADDPVVLYVSGGNTQVIAYSEGRYRIFGETIDIAVGNCLDRFARVLKLSNDPSPGYNIEQLAKKGENFIDLPYAVKGMDVSFSGILSYIETTAEEKLKNNECTPADLCYSLQETVFAMLVEITERAMAHCDKKDVLIVGGVGCNERLQEMMRTMCSERDGKLFATDDRYCIDNGAMIAYTGLLAFVNGIETPIEDSTFTQRFRTDEVHAVWREKEAVLLGDKKVAAN
chain 2: MDCEENVRDESLVLIKQGAEARVFESTFAGRRSIVKERFSKKYRHPILDAKLTLKRLNAEARCMTKARKLGVCTPVLYAVDTLLHSLTLEYIEGVSVKDIFLEFGTNGVVEERLDDVAAQIGAAIAKLHDGGLAHGDLTTSNMLVRSGTNQLVLIDFGLSVTSTLPEDKAVDLYVLERALLSMHSSCGNVMDRILTAYRKSSKQWSATFNKLAQVRQRGRKRTMIG
chain 3: MKVFNLDRGNTLSVSLFSGVTNSKELLNSMLDGSLKLEVSFLNASLIPDIFPLLAAAQKALISKSRDSLSTRTLHSELVYNYSGSKHITESLKRCGISENTTYILAARFNASPVEMEEVAKLINGKEIDLEELKTHANQANILKHYKITSQELGISSLGDAIVCRIAARDAL
chain 4: MAATVPATTRSDQTWDFSCNLDVSFESEEHALIAYTSLAVDKELQPDKVRRVMSVSNNKLSVHFEAIEARLLRASFSAFVDVLTLATRTIQEFGQK
notes: AtKAE1, A. thaliana, as m1; AtBUD32, A. thaliana, as m2; AtCGI121, A. thaliana, as m3; AtPCC1, A. thaliana, as m4; Written as the four-subunit protomer; In solution the wild type is an eight-subunit dimer (K2B2C2P2) of this protomer, and it stood in that form in the pull-down from seedling lysate; also called AtKEOPS; KBCP; source: reconstituted from purified KAE1–PCC1 and BUD32–CGI121 (E. coli) …
stoichiometry N [2]: 2
